Data published in PMC6249037.

Legend:
[1] = target: N15 TCRαβ heterodimer, TCRα R251L (mouse)
[2] = target: N15 TCRαβ heterodimer, WT TCRα (mouse) (UniProt P01849)
Sequence of UniProt P01849 (P01849 whole entry, looked up, one chain of several): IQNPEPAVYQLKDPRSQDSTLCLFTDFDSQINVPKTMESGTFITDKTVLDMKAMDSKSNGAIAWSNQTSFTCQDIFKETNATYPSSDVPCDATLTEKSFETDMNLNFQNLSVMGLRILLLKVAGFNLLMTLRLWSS

Substance “VSV8K^b (vesicular stomatitis virus nucleoprotein octapeptide VSV8 bound to [change]^b) (peptide-MHC)” has a catch bond force maximum [1] of 10 pN, a force maximum for catch-bond formation (CD3δ-SxxS cell line) [2] of 15 pN and a maximal bond lifetime (catch bond; CD3δ-SxxS cell line) [2] of 8 s.
